According to IntAct's records for PubMed 10869553:

B1: Protein S100-A4 (Mus musculus), P07091 (parent)
chain: MARPLEEALDVIVSTFHKYSGKEGDKFKLNKTELKELLTRELPSFLGKRTDEAAFQKVMSNLDSNRDNEVDFQEYCVFLSCIAMMCNEFFEGCPDKEPRKK
partner: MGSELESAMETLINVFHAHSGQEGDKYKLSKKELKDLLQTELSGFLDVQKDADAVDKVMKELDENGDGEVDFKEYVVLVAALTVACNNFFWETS

Variants of: B1
Details: with S100a1, P56565

Row | effect of a mutation on the interaction | Variant
1 | disrupting interaction | F72A
